Assay results published in patent publication US20250115669A1, “FGFR1/KLB Targeting Agonistic Antigen-Binding Proteins and Conjugates Thereof with GLP-1R Agonistic Peptides” (SANOFI, priority 2020, published 2025).

Target: T1, FGFR1c and co-receptor beta-Klotho (KLB) (Homo sapiens, UniProt P11362+Q86Z14)
T1 construct: host or cells: iLite FGF21 Assay Ready Cells (HEK293)
Assay: Luciferase reporter gene assay (iLite FGF21 Assay Ready Cells), FGF21-like signaling
Type: cell-based
Settings: monovalent Fab versus bivalent antibody

T1 sequence (Q86Z14 53-1044 limits assumed): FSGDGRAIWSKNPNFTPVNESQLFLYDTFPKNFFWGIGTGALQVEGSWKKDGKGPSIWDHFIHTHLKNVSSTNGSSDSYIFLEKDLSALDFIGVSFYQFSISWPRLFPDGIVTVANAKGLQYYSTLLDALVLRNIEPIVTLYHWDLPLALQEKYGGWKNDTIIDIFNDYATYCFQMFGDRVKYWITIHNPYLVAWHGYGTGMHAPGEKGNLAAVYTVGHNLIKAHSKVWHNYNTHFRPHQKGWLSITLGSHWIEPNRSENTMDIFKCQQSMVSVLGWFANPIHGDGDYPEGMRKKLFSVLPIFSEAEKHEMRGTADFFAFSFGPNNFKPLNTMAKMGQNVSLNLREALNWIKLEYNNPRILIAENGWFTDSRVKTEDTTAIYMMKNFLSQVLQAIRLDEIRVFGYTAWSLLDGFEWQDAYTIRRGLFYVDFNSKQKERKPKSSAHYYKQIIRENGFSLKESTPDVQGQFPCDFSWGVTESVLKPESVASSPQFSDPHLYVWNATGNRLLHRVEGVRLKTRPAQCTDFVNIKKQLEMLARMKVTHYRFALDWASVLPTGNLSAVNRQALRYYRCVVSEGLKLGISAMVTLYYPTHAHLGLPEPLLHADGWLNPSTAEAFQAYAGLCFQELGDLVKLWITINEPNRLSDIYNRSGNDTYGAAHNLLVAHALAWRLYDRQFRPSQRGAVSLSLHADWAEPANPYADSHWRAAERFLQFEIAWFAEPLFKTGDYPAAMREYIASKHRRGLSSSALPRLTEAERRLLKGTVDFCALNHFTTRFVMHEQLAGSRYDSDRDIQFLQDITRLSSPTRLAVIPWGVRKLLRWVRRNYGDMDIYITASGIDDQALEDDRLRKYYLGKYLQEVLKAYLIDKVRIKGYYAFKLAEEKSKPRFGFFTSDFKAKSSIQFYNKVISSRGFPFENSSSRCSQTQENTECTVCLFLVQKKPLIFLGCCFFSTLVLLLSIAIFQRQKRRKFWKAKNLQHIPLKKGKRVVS
T1 sequence (P11362 22-820 isoform P11362-2 limits assumed): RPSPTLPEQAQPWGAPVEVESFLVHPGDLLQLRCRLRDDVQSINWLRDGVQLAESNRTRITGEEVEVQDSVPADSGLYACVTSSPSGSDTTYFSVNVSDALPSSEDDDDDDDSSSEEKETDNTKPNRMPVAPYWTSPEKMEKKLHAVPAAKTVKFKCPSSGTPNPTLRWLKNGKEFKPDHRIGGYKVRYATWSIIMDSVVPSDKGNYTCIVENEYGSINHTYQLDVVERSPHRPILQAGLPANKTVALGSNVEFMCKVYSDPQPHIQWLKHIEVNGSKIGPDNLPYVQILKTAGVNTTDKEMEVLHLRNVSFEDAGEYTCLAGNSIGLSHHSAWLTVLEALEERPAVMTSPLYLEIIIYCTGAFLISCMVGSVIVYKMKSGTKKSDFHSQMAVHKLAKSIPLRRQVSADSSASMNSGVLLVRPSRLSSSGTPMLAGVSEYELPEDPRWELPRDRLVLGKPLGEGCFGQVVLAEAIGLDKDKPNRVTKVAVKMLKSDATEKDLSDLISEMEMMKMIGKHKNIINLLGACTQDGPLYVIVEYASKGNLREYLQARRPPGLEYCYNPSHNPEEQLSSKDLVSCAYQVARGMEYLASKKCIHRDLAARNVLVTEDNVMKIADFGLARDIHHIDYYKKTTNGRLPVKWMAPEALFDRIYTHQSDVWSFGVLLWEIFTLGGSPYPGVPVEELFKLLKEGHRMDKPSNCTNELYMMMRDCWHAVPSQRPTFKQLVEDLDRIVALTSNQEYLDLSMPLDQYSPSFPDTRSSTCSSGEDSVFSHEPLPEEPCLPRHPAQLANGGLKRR

Substance: 16H7-Fab: monovalent Fab fragment (antigen-binding fragment) of 16H7 [Ab 16H7-Fab, reference compound]
- FGF21-like activity in Luciferase gene reporter assay (in words): inactive
